Columns and labels:
[1] = target: T1, LetA (N-terminal 6xHis2xQH-TEV tagged LetA) (E. coli, UniProt P0AD03 1-427); assay: cryo-EM structure
T1 sequence (looked up): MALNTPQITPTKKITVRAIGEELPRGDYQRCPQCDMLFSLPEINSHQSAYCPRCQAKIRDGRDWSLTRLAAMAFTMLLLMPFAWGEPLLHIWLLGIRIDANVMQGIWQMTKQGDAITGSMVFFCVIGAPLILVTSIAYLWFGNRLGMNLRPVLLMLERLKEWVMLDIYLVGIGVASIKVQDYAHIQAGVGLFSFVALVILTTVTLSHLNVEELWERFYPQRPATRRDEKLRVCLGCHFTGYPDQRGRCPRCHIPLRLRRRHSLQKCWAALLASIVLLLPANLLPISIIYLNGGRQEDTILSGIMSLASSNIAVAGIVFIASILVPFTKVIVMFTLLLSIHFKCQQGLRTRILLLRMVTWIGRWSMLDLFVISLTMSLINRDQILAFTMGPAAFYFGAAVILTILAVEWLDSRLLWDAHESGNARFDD

cryo-EM structure = target: the molecule itself; assay: cryo-EM structure

- stoichiometry N [1]: 6 LetB per LetA
B1: LetB (Lipophilic Envelope-spanning Tunnel B), untagged (natural protein, E. coli, UniProt P76272 1-877, looked up)
chain: MSQETPASTTEAQIKNKRRISPFWLLPFIALMIASWLIWDSYQDRGNTVTIDFMSADGIVPGRTPVRYQGVEVGTVQDISLSDDLRKIEVKVSIKSDMKDALREETQFWLVTPKASLAGVSGLDALVGGNYIGMMPGKGKEQDHFVALDTQPKYRLDNGDLMIHLQAPDLGSLNSGSLVYFRKIPVGKVYDYAINPNKQGVVIDVLIERRFTDLVKKGSRFWNVSGVDANVSISGAKVKLESLAALVNGAIAFDSPEESKPAEAEDTFGLYEDLAHSQRGVIIKLELPSGAGLTADSTPLMYQGLEVGQLTKLDLNPGGKVTGEMTVDPSVVTLLRENTRIELRNPKLSLSDANLSALLTGKTFELVPGDGEPRKEFVVVPGEKALLHEPDVLTLTLTAPESYGIDAGQPLILHGVQVGQVIDRKLTSKGVTFTVAIEPQHRELVKGDSKFVVNSRVDVKVGLDGVEFLGASASEWINGGIRILPGDKGEMKASYPLYANLEKALENSLSDLPTTTVSLSAETLPDVQAGSVVLYRKFEVGEVITVRPRANAFDIDLHIKPEYRNLLTSNSVFWAEGGAKVQLNGSGLTVQASPLSRALKGAISFDNLSGASASQRKGDKRILYASETAARAVGGQITLHAFDAGKLAVGMPIRYLGIDIGQIQTLDLITARNEVQAKAVLYPEYVQTFARGGTRFSVVTPQISAAGVEHLDTILQPYINVEPGRGNPRRDFELQEATITDSRYLDGLSIIVEAPEAGSLGIGTPVLFRGLEVGTVTGMTLGTLSDRVMIAMRISKRYQHLVRNNSVFWLASGYSLDFGLTGGVVKTGTFNQFIRGGIAFATPPGTPLAPKAQEGKHFLLQESEPKEWREWGTALPK
- stoichiometry N (cryo-EM structure): 6

Reference: article doi:10.1101/2025.03.21.644421 (bioRxiv, 2025)
